Publication PMC12137140, “The fast-evolving FIKK kinase family of Plasmodium falciparum can be inhibited by a single compound” (Nature Microbiology, 2025)
Where no end group is shown, it is not given here. [ ]: non-standard residue; d: D form.

B1: FIKK13_1 (peptide)
peptide: YRLVFGCG
modifications: D-tyrosine at position 1; cyclised via a thioether bond between the N-terminus and the cysteine side chain; C-terminal amide
B2: FIKK13_4_Y10A (peptide)
peptide: YPLRFLSVKAHCG
modifications: D-tyrosine at position 1; cyclised via a thioether bond between the N-terminus and the cysteine side chain; C-terminal amide
B3: FIKK13_4_linear (peptide)
peptide: [dY]PLRFLSVKYHCG-NH2
modifications: N-terminus assumed
SMILES: CC(C)C[C@H](NC(=O)[C@H](Cc1ccccc1)NC(=O)[C@H](CCCNC(=N)N)NC(=O)[C@H](CC(C)C)NC(=O)[C@@H]1CCCN1C(=O)[C@H](N)Cc1ccc(O)cc1)C(=O)N[C@@H](CO)C(=O)N[C@H](C(=O)N[C@@H](CCCCN)C(=O)N[C@@H](Cc1ccc(O)cc1)C(=O)N[C@@H](Cc1c[nH]cn1)C(=O)N[C@@H](CS)C(=O)NCC(N)=O)C(C)C
B4: FIKK13_3 (peptide)
peptide: YPFITSPRYCFML
modifications: D-tyrosine at position 1; cyclised via a thioether bond between the N-terminus and the cysteine side chain; C-terminal amide
B5: FIKK13_2_linear (peptide)
peptide: [dY]SFPVYRIWYRDCG-NH2
modifications: N-terminus assumed
SMILES: CC[C@H](C)[C@H](NC(=O)[C@H](CCCNC(=N)N)NC(=O)[C@H](Cc1ccc(O)cc1)NC(=O)[C@@H](NC(=O)[C@@H]1CCCN1C(=O)[C@H](Cc1ccccc1)NC(=O)[C@H](CO)NC(=O)[C@H](N)Cc1ccc(O)cc1)C(C)C)C(=O)N[C@@H](Cc1c[nH]c2ccccc12)C(=O)N[C@@H](Cc1ccc(O)cc1)C(=O)N[C@@H](CCCNC(=N)N)C(=O)N[C@@H](CC(=O)O)C(=O)N[C@@H](CS)C(=O)NCC(N)=O
B6: FIKK13_6 (peptide)
peptide: YIVSVVCWSD
modifications: D-tyrosine at position 1; cyclised via a thioether bond between the N-terminus and the cysteine side chain; C-terminal amide
B7: FIKK13_2 (peptide)
peptide: YSFPVYRIWYRDCG
modifications: D-tyrosine at position 1; cyclised via a thioether bond between the N-terminus and the cysteine side chain; C-terminal amide
B8: FIKK13_5 (peptide)
peptide: YRIFRIWWERCG
modifications: D-tyrosine at position 1; cyclised via a thioether bond between the N-terminus and the cysteine side chain; C-terminal amide

target: Bio-His-FIKK13 (Plasmodium falciparum 3D7); experiment: SPR; single-cycle kinetics, Biacore S200, Biotin CAPture kit; Bio-His-FIKK13 immobilised (about 1,400 RU), peptides as analytes; 50 mM Tris pH 7.5, 250 mM NaCl, 2 mM DTT, 10 mM MgCl2, 1.5 µM ADP, 0.02% Tween, 0.1% DMSO; 25 °C; 100 s contact time

Row | Binder | Kd [µM] | koff [s⁻¹] | kon [M⁻¹ s⁻¹]
1 | B1 | > 10 |  | 
2 | B2 | > 10 |  | 
3 | B3 | > 10 |  | 
4 | B4 |  | 0.029 | 3.5e+06
5 | B5 | > 10 |  | 
6 | B6 | > 10 |  | 
7 | B7 |  | 0.2 | 1.4e+06
8 | B8 |  | 0.07 | 1.9e+06
